Data reported in patent publication US20120316071A1 (published 2012).

Columns and labels:
[1] = target: T1, Recombinant Human DLL4 (R&D Systems Cat#1506-D4/CF) (human, UniProt Q9NR61 27-524); test: ECL (Meso Scale Discovery) multispot binding assay, DLL4 immobilised, Fab at 100 nM
T1 construct: Bought recombinant protein; also called delta-like protein 4; Delta-like 4

[2] = target: T2, Recombinant Human DLL4 (delta-like protein 4) (human, UniProt Q9NR61 27-524); test: ELISA, DLL4 coated on plate, Fab at 50 nM (2-fold dilution series), absorbance at 450 nm
T2 construct: Bought recombinant human DLL4 coated on the ELISA plate; also called rHuman DLL4

[3] = target: T2, Recombinant Human DLL4 (delta-like …); test: ELISA, DLL4 coated on plate, Fab at 25 nM (2-fold dilution series), absorbance at 450 nm
[4] = target: T2, Recombinant Human DLL4 (delta-like …); test: ELISA, DLL4 coated on plate, Fab at 12.5 nM (2-fold dilution series), absorbance at 450 nm
[5] = target: T2, Recombinant Human DLL4 (delta-like …); test: ELISA, DLL4 coated on plate, Fab at 100 nM (2-fold dilution series), absorbance at 450 nm

Binder	ECL signal [1]	further results
Fab VH5-51_IGHD5-18*01>3_IGHJ4*01 G100K/G104T (H:KT) & V3-4_IGLJ1*01 G23A (Fab, V domains shown, Fab expressed in E. coli; Plasmid A adds CH1 with His6 and Flag tags to the heavy chain; Plasmid E adds lambda CL to the light chain; also called G100K/G104T & G23A) VH: EVQLVQSGAEVKKPGESLKISCKGSGYSFTSYWIGWVRQMPGKGLEWMGIIYPGDSDTRYSPSFQGQVTISADKSISTAYLQWSSLKASDTAMYYCARRKYSYTYDYFDYWGQGTLVTVSS VL: QTVVTQEPSFSVSPGGTVTLTCALSSGSVSTSYYPSWYQQTPGQAPRTLIYSTNTRSSGVPDRFSGSILGNKAALTITGAQADDESDYYCVLYMGSGISYVFGTGTKVTVL	13500	–
Fab VH5-51_IGHD5-18*01>3_IGHJ4*01 G100K/G104T (H:KT) & V3-4_IGLJ1*01 G27A (Fab, V domains shown, Fab expressed in E. coli; Plasmid A adds CH1 with His6 and Flag tags to the heavy chain; Plasmid E adds lambda CL to the light chain; also called G100K/G104T & G27A) VH: EVQLVQSGAEVKKPGESLKISCKGSGYSFTSYWIGWVRQMPGKGLEWMGIIYPGDSDTRYSPSFQGQVTISADKSISTAYLQWSSLKASDTAMYYCARRKYSYTYDYFDYWGQGTLVTVSS VL: QTVVTQEPSFSVSPGGTVTLTCGLSSASVSTSYYPSWYQQTPGQAPRTLIYSTNTRSSGVPDRFSGSILGNKAALTITGAQADDESDYYCVLYMGSGISYVFGTGTKVTVL	10700	–
Fab VH5-51_IGHD5-18*01>3_IGHJ4*01 G100K/G104T (H:KT) & V3-4_IGLJ1*01 L24A (Fab, V domains shown, Fab expressed in E. coli; Plasmid A adds CH1 with His6 and Flag tags to the heavy chain; Plasmid E adds lambda CL to the light chain; also called G100K/G104T & L24A) VH: EVQLVQSGAEVKKPGESLKISCKGSGYSFTSYWIGWVRQMPGKGLEWMGIIYPGDSDTRYSPSFQGQVTISADKSISTAYLQWSSLKASDTAMYYCARRKYSYTYDYFDYWGQGTLVTVSS VL: QTVVTQEPSFSVSPGGTVTLTCGASSGSVSTSYYPSWYQQTPGQAPRTLIYSTNTRSSGVPDRFSGSILGNKAALTITGAQADDESDYYCVLYMGSGISYVFGTGTKVTVL	9630	–
Fab VH5-51_IGHD5-18*01>3_IGHJ4*01 G100K/G104T (H:KT) & V3-4_IGLJ1*01 P35A (Fab, V domains shown, Fab expressed in E. coli; Plasmid A adds CH1 with His6 and Flag tags to the heavy chain; Plasmid E adds lambda CL to the light chain; also called G100K/G104T & P35A) VH: EVQLVQSGAEVKKPGESLKISCKGSGYSFTSYWIGWVRQMPGKGLEWMGIIYPGDSDTRYSPSFQGQVTISADKSISTAYLQWSSLKASDTAMYYCARRKYSYTYDYFDYWGQGTLVTVSS VL: QTVVTQEPSFSVSPGGTVTLTCGLSSGSVSTSYYASWYQQTPGQAPRTLIYSTNTRSSGVPDRFSGSILGNKAALTITGAQADDESDYYCVLYMGSGISYVFGTGTKVTVL	8260	–
Fab VH5-51_IGHD5-18*01>3_IGHJ4*01 G100K/G104T (H:KT) & V3-4_IGLJ1*01 S25A (Fab, V domains shown, Fab expressed in E. coli; Plasmid A adds CH1 with His6 and Flag tags to the heavy chain; Plasmid E adds lambda CL to the light chain; also called G100K/G104T & S25A) VH: EVQLVQSGAEVKKPGESLKISCKGSGYSFTSYWIGWVRQMPGKGLEWMGIIYPGDSDTRYSPSFQGQVTISADKSISTAYLQWSSLKASDTAMYYCARRKYSYTYDYFDYWGQGTLVTVSS VL: QTVVTQEPSFSVSPGGTVTLTCGLASGSVSTSYYPSWYQQTPGQAPRTLIYSTNTRSSGVPDRFSGSILGNKAALTITGAQADDESDYYCVLYMGSGISYVFGTGTKVTVL	10200	–
Fab VH5-51_IGHD5-18*01>3_IGHJ4*01 G104T & V3-4_IGLJ1*01 (wildtype) (Fab, V domains shown, Fab; Expressed in E. coli with CH1 (plasmid A, His6 and Flag tags) and lambda CL (plasmid E); also called G104T & Wildtype) VH: EVQLVQSGAEVKKPGESLKISCKGSGYSFTSYWIGWVRQMPGKGLEWMGIIYPGDSDTRYSPSFQGQVTISADKSISTAYLQWSSLKASDTAMYYCARRGYSYTYDYFDYWGQGTLVTVSS VL: QTVVTQEPSFSVSPGGTVTLTCGLSSGSVSTSYYPSWYQQTPGQAPRTLIYSTNTRSSGVPDRFSGSILGNKAALTITGAQADDESDYYCVLYMGSGISYVFGTGTKVTVL	–	ELISA signal [2]: 0.17; ELISA signal [3]: 0.18; ELISA signal [4]: 0.19; ELISA signal [5]: 0.17

Second part, led by results:

ECL signal [1]	Binder	further results
11500	Fab VH5-51_IGHD5-18*01>3_IGHJ4*01 G100K/G104T (H:KT) & V3-4_IGLJ1*01 S28A (Fab, V domains shown, Fab expressed in E. coli; Plasmid A adds CH1 with His6 and Flag tags to the heavy chain; Plasmid E adds lambda CL to the light chain; also called G100K/G104T & S28A (light chain)) VH: EVQLVQSGAEVKKPGESLKISCKGSGYSFTSYWIGWVRQMPGKGLEWMGIIYPGDSDTRYSPSFQGQVTISADKSISTAYLQWSSLKASDTAMYYCARRKYSYTYDYFDYWGQGTLVTVSS VL: QTVVTQEPSFSVSPGGTVTLTCGLSSGAVSTSYYPSWYQQTPGQAPRTLIYSTNTRSSGVPDRFSGSILGNKAALTITGAQADDESDYYCVLYMGSGISYVFGTGTKVTVL	–
11700	Fab VH5-51_IGHD5-18*01>3_IGHJ4*01 G100K/G104T (H:KT) & V3-4_IGLJ1*01 S26A (Fab, V domains shown, Fab expressed in E. coli; Plasmid A adds CH1 with His6 and Flag tags to the heavy chain; Plasmid E adds lambda CL to the light chain; also called G100K/G104T & S26A) VH: EVQLVQSGAEVKKPGESLKISCKGSGYSFTSYWIGWVRQMPGKGLEWMGIIYPGDSDTRYSPSFQGQVTISADKSISTAYLQWSSLKASDTAMYYCARRKYSYTYDYFDYWGQGTLVTVSS VL: QTVVTQEPSFSVSPGGTVTLTCGLSAGSVSTSYYPSWYQQTPGQAPRTLIYSTNTRSSGVPDRFSGSILGNKAALTITGAQADDESDYYCVLYMGSGISYVFGTGTKVTVL	–
